Measured values reported in patent publication US12467929.

Legend:
[1] = molecular target: recombinant UBE3A protein (Homo sapiens (Human)) (UniProt Q05086); experiment: Simoa; capture GTX, no helper beads; 3E5 0.2 ug/ml; UBE3A 0.00640 ng/ml
[2] = molecular target: recombinant UBE3A protein (Homo sapiens (Human)) (UniProt Q05086); experiment: 3-step Simoa; capture MS 2F6; UBE3A 0.010 ng/ml
[3] = molecular target: recombinant UBE3A protein (Homo sapiens (Human)) (UniProt Q05086); experiment: Simoa head-to-head, Table 11; capture GTX; UBE3A 0.16 ng/ml
[4] = molecular target: recombinant UBE3A protein (Homo sapiens (Human)) (UniProt Q05086); experiment: Simoa; capture GTX; 3E5 0.2 ug/ml; UBE3A 0.00128 ng/ml
[5] = molecular target: recombinant UBE3A protein (Homo sapiens (Human)) (UniProt Q05086); experiment: Simoa head-to-head, Table 11; capture MS 2F6; UBE3A 0.032 ng/ml
[6] = molecular target: recombinant UBE3A protein (Homo sapiens (Human)) (UniProt Q05086); experiment: Simoa; capture GTX; 3E5 0.2 ug/ml; UBE3A 4.00 ng/ml
[7] = molecular target: recombinant UBE3A protein (Homo sapiens (Human)) (UniProt Q05086); experiment: 3-step Simoa, 120 min bead step; capture GTX; UBE3A 4.00 ng/ml
[8] = molecular target: recombinant UBE3A protein (Homo sapiens (Human)) (UniProt Q05086); experiment: Simoa; capture GTX; SBG 75 pm; UBE3A 0.0320 ng/ml
[9] = molecular target: recombinant UBE3A protein (Homo sapiens (Human)) (UniProt Q05086); experiment: Simoa; capture GTX, no helper beads; 3E5 0.4 ug/ml; UBE3A 0.160 ng/ml
[10] = molecular target: recombinant UBE3A protein (Homo sapiens (Human)) (UniProt Q05086); experiment: Simoa; capture GTX, no helper beads; 3E5 0.4 ug/ml; UBE3A 0.0320 ng/ml
[11] = molecular target: recombinant UBE3A protein (Homo sapiens (Human)) (UniProt Q05086); experiment: Simoa; capture GTX; SBG 100 pm; UBE3A 0.800 ng/ml
[12] = molecular target: recombinant UBE3A protein (Homo sapiens (Human)) (UniProt Q05086); experiment: Simoa; capture GTX; 3E5 0.2 ug/ml; UBE3A 0.800 ng/ml
[13] = molecular target: recombinant UBE3A protein (Homo sapiens (Human)) (UniProt Q05086); experiment: Simoa; capture GTX; 3E5 0.2 ug/ml; UBE3A 0.00640 ng/ml
[14] = molecular target: recombinant UBE3A protein (Homo sapiens (Human)) (UniProt Q05086); experiment: Simoa; capture GTX; SBG 150 pm; UBE3A 0.00640 ng/ml
[15] = molecular target: recombinant UBE3A protein (Homo sapiens (Human)) (UniProt Q05086); experiment: Simoa head-to-head, Table 11; capture MS 2F6; UBE3A 500 ng/ml
[16] = molecular target: recombinant UBE3A protein (Homo sapiens (Human)) (UniProt Q05086); experiment: Simoa; capture GTX + helper beads; 3E5 0.4 ug/ml; UBE3A 4.00 ng/ml
[17] = molecular target: recombinant UBE3A protein (Homo sapiens (Human)) (UniProt Q05086); experiment: Simoa; capture GTX; SBG 75 pm; UBE3A 0.00640 ng/ml
[18] = molecular target: recombinant UBE3A protein (Homo sapiens (Human)) (UniProt Q05086); experiment: Simoa; capture GTX, no helper beads; 3E5 0.1 ug/ml; UBE3A 4.00 ng/ml
[19] = molecular target: recombinant UBE3A protein (Homo sapiens (Human)) (UniProt Q05086); experiment: Simoa; capture GTX + helper beads; 3E5 0.2 ug/ml; UBE3A 0.0320 ng/ml
[20] = molecular target: recombinant UBE3A protein (Homo sapiens (Human)) (UniProt Q05086); experiment: Simoa; capture GTX; SBG 100 pm; UBE3A 20.0 ng/ml

Sequence of UniProt Q05086 (Q05086 whole entry): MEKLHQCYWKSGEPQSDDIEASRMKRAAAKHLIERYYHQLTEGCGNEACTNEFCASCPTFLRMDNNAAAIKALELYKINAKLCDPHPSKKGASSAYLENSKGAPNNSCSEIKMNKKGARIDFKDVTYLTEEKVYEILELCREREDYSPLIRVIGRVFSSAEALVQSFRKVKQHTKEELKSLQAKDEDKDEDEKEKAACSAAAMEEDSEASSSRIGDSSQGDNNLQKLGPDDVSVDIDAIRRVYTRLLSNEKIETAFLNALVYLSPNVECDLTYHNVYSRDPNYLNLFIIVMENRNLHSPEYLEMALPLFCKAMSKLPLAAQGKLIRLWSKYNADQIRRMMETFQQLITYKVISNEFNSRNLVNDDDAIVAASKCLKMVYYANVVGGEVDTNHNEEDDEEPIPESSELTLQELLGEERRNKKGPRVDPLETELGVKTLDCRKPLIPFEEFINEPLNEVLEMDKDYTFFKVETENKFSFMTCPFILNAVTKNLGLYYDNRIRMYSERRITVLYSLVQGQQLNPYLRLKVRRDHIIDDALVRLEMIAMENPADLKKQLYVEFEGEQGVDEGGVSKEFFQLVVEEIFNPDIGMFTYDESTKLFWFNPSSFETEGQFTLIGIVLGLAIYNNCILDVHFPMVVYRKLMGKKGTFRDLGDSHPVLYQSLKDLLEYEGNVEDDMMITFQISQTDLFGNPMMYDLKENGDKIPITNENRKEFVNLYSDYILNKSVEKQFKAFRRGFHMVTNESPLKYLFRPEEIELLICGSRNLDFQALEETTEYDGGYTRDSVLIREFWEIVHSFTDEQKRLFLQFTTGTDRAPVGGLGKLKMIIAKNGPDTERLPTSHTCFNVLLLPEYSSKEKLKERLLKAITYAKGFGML

Q: Which results are given for “anti-UBE3A antibody 3E5 (SAB1404508-100 ug, Millipore-Sigma)”?
A: AEB2 [1]: 0.012; Average AEB [1]: 0.012; Signal to Background [1]: 1.24; AEB1 [2]: 0.0035; AEB2 [2]: 0.0048; Ave AEB [2]: 0.0042; Signal to Background [2]: 1.06; AEB1 [3]: 0.0288; AEB2 [3]: 0.0291; Ave AEB [3]: 0.0289; Signal to Background [3]: 3.53; AEB1 [4]: 0.0457; AEB2 [4]: 0.0439; AEB3 [4]: 0.0421; Average AEB [4]: 0.0439; Signal to Background [4]: 1.12; AEB1 [5]: 0.0032; AEB2 [5]: 0.0043; Ave AEB [5]: 0.0037; Signal to Background [5]: 0.986; AEB1 [6]: 1.18; AEB2 [6]: 2.32; AEB3 [6]: 1.18; Average AEB [6]: 1.56; Signal to Background [6]: 39.7; AEB1 [7]: 0.533; AEB2 [7]: 0.55; Ave AEB [7]: 0.542; Signal to Background [7]: 318; AEB1 [8]: 0.0091; AEB2 [8]: 0.0117; AEB3 [8]: 0.0116; Average AEB [8]: 0.0108; Signal to Background [8]: 2.47; AEB1 [9]: 0.1; AEB2 [9]: 0.108; Average AEB [9]: 0.104; Signal to Background [9]: 5.33; AEB1 [10]: 0.0366; AEB2 [10]: 0.037; Average AEB [10]: 0.0368; Signal to Background [10]: 1.88; AEB1 [11]: 0.21; AEB2 [11]: 0.214; AEB3 [11]: 0.211; Average AEB [11]: 0.212; Signal to Background [11]: 25.3; AEB1 [12]: 0.355; AEB2 [12]: 0.378; AEB3 [12]: 0.358; Average AEB [12]: 0.364; Signal to Background [12]: 9.26; AEB1 [13]: 0.0421; AEB2 [13]: 0.0466; AEB3 [13]: 0.0433; Average AEB [13]: 0.044; Signal to Background [13]: 1.12; AEB1 [14]: 0.0136; AEB2 [14]: 0.0149; AEB3 [14]: 0.014; Average AEB [14]: 0.0142; Signal to Background [14]: 1.07; AEB1 [15]: 8.9; AEB2 [15]: 8.6; Ave AEB [15]: 8.75; Signal to Background [15]: 2310; AEB1 [16]: 1.16; AEB2 [16]: 1.12; Average AEB [16]: 1.14; Signal to Background [16]: 58.5; AEB1 [17]: 0.0059; AEB2 [17]: 0.0047; AEB3 [17]: 0.0074; Average AEB [17]: 0.006; Signal to Background [17]: 1.36; AEB1 [18]: 0.607; AEB2 [18]: 0.603; Average AEB [18]: 0.605; Signal to Background [18]: 106; AEB1 [19]: 0.0226; AEB2 [19]: 0.0236; Average AEB [19]: 0.0231; Signal to Background [19]: 2.39; AEB1 [20]: 3.96; AEB2 [20]: 3.97; AEB3 [20]: 4.1; Average AEB [20]: 4.01; Signal to Background [20]: 478
